Data: PMC12136000

Biological target: FLAG-tagged eIF3d (wild-type eIF3D-FLAG) (UniProt O15371)
Assay: co-IP; HeLa lysate (50 mM Tris pH7.5, 150 mM NaCl, 1% Triton-X, Benzonase) on anti-flag-beads for 2 h at 4 °C, three washes, western blot; cells treated for 2 h with DMSO or with 3 µM of the CK2 inhibitor CX-5011 before lysis

UniProt O15371, sequence (O15371 whole entry): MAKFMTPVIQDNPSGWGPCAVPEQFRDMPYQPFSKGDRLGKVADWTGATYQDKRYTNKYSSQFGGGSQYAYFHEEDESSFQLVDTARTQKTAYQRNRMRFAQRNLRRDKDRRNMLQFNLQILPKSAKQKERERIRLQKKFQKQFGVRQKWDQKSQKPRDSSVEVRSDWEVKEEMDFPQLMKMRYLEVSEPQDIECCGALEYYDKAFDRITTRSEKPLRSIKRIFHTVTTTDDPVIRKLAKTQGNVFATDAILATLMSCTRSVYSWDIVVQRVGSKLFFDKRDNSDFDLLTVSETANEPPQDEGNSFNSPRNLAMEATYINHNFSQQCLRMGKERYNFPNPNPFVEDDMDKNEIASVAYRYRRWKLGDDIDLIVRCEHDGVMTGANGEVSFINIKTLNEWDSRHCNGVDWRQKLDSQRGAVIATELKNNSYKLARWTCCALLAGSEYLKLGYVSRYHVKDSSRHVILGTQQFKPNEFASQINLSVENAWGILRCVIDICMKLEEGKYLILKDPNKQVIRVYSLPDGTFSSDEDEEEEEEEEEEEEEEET

- decrease of co-precipitation (IP relative to input) after the CK2 inhibitor CX-5011: 37 % decrease
Substance: eIF4A (from UniProt P60842 1-406) (natural protein)
